Reference: patent publication US20190352367A1 (CLEVELAND CLINIC FOUNDATION, published 2019)

B1: Focal adhesion kinase (FAK), endogenous in breast cell lysates (enzyme)
chain: AAAYLDPNLNHTPNSSTKTHLGTGMERSPGAMERVLKVFHYFESNSEPTTWASIIRHGDATDVRGIIQKIVDSHKVKHVACYGFRLSHLRSEEVHWLHVDMGVSSVREKYELAHPPEEWKYELRIRYLPKGFLNQFTEDKPTLNFFYQQVKSDYMLEIADQVDQEIALKLGCLEIRRSYWEMRGNALEKKSNYEVLEKDVGLKRFFPKSLLDSVKAKTLRKLIQQTFRQFANLNREESILKFFEILSPVYRFDKECFKCALGSSWIISVELAIGPEEGISYLTDKGCNPTHLADFTQVQTIQYSNSEDKDRKGMLQLKIAGAPEPLTVTAPSLTIAENMADLIDGYCRLVNGTSQSFIIRPQKEGERALPSIPKLANSEKQGMRTHAVSVSETDDYAEIIDEEDTYTMPSTRDYEIQRERIELGRCIGEGQFGDVHQGIYMSPENPALAVAIKTCKNCTSDSVREKFLQEALTMRQFDHPHIVKLIGVITENPVWIIMELCTLGELRSFLQVRKYSLDLASLILYAYQLSTALAYLESKRFVHRDIAARNVLVSSNDCVKLGDFGLSRYMEDSTYYKASKGKLPIKWMAPESINFRRFTSASDVWMFGVCMWEILMHGVKPFQGVKNNDVIGRIENGERLPMPPNCPPTLYSLMTKCWAYDPSRRPRFTELKAQLSTILEEEKAQQEERMRMESRRQATVSWDSGGSDEAPPKPSRPGYPSPRSSEGFYPSPQHMVQTNHYQVSGYPGSHGITAMAGSIYPGQASLLDQTDSWNHRPQEIAMWQPNVEDSTVLDLRGIGQVLPTHLMEERLIRQQQEMEEDQRWLEKEERFLKPDVRLSRGSIDREDGSLQGPIGNQHIYQPVGKPDPAAPPKKPPRPGAPGHLGSLASLSSPADSYNEGVKLQPQEISPPPTANLDRSNDKVYENVTGLVKAVIEMSSKIQPAPPEEYVPMVKEVGLALRTLLATVDETIPLLPASTHREIEMAQKLLNSDLGELINKMKLAQQYVMTSLQQEYKKQMLTAAHALAVDAKNLLDVIDQARLKMLGQTRPH
notes: Protein from cell lysates in co-immunoprecipitation; also called total FAK

Key:
[1] = biological target: Connexin 26 (Cx26), endogenous or overexpressed in breast cell lysates (UniProt P29033 1-226); experiment: reciprocal co-immunoprecipitation (anti-Cx26, anti-FAK) from bulk MCF7 and MCF10A lysates, western blot; non-immune IgG as control
[2] = biological target: T1, Nanog transcription factor (NANOG), SPR ligand (UniProt Q9H9S0 1-305, limits assumed); experiment: SPR, peptide as analyte, NANOG as ligand
T1 construct: the NANOG preparation is not described
T1 sequence (Q9H9S0 whole entry): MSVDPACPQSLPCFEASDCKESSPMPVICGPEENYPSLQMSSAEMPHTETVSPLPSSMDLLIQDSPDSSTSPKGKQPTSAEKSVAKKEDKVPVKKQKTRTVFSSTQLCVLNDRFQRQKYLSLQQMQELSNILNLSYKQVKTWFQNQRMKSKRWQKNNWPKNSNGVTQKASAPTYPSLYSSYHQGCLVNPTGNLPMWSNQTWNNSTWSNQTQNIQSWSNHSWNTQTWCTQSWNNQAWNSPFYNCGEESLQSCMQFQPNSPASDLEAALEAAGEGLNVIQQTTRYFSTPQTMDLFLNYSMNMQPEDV

[3] = biological target: T2, Focal Adhesion Kinase (FAK), SPR ligand (UniProt Q05397 1-1052, limits assumed); experiment: SPR, peptide as analyte, FAK as ligand
T2 construct: the FAK preparation is not described

Binder	binding result [1]	Kd [2]	Kd [3]
B1	binds		
RYCSGKSKKPV (also called cytoplasmic tail of Cx26) [Cx26 blocking peptide 5 (C-terminus)]		0.17 µM	14.9 µM
